Data: publication doi:10.1101/2025.03.14.643404 (2025)

How the values were obtained:
[1] = biological target: T1, BCL6^BTB (residues 5-129; C8Q, C67R, C84N), tags cleaved (pSG219C) (human, UniProt P41182 5-129, C8Q | C67R | C84N); assay: ITC; BCL6 binding to p300:TCIP3 binary complex (ternary, alpha 13)
[2] = biological target: T1, BCL6^BTB (residues 5-129; C8Q, C67R, …); assay: ITC; p300 binding to BCL6:TCIP3 binary complex (ternary, alpha 3.5)

B1: 6xHis-p300^BD (p300 bromodomain) (domain or fragment)
chain: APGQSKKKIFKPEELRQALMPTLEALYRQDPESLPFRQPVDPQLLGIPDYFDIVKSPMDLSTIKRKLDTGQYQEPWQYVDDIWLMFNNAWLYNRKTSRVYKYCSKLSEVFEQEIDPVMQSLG
- Kd [1]: 19.8 nM
- Kd [2]: 2.37 nM
